Positions count from the first letter of the chain named. In names and notes the source's numbering stands.
B1: NIgG4B1A1(G4S)3 (Fc fusion)
chain 1: QVQLQESGGGLVQTGGSLRLSCAVHGRTFSNTGMGWFRQAPGNERQFVAIISPSGTSTYYADSVKGRFTISRDPAKNTVYLQMNSLKMDDTAVYYCAASYGSNWSTLRHQRRNEYDAWGQGTQVAVSGGGGSGGGGSGGGGSGPPCPPCPAPEFLGGPSVFLFPPKPKDTLMISRTPEVTCVVVDVSQEDPEVQFNWYVDGVEVHNAKTKPREEQFNSTYRVVSVLTVLHQDWLNGKEYKCKVSNKGLPSSIEKTISKAKGQPREPQVYTLPPCQEEMTKNQVSLWCLVKGFYPSDIAVEWESNGQPENNYKTTPPVLDSDGSFFLYSRLTVDKSRWQEGNVFSCSVMHEALHNHYTQKSLSLSLGK
chain 2: EVQLLESGGGLVQPGGSLRLSCAASGFTFGNYDMAWVRQAPGKRPEWVSSIDTGGDITHYADSVKGRFTISRDNAKNTLYLQMNSLRPEDTAVYWCATDEEYALGPNEFDYYGQGTLVTVSSGGGGSGGGGSGGGGSGPPCPPCPAPEFLGGPSVFLFPPKPKDTLMISRTPEVTCVVVDVSQEDPEVQFNWYVDGVEVHNAKTKPREEQFNSTYRVVSVLTVLHQDWLNGKEYKCKVSNKGLPSSIEKTISKAKGQPREPQVCTLPPSQEEMTKNQVSLSCAVKGFYPSDIAVEWESNGQPENNYKTTPPVLDSDGSFFLVSRLTVDKSRWQEGNVFSCSVMHEALHNHYTQKSLSLSLGK
B2: CIgG4B1A1(RS) (Fc fusion)
chain 1: GPPCPPCPAPEFLGGPSVFLFPPKPKDTLMISRTPEVTCVVVDVSQEDPEVQFNWYVDGVEVHNAKTKPREEQFNSTYRVVSVLTVLHQDWLNGKEYKCKVSNKGLPSSIEKTISKAKGQPREPQVYTLPPCQEEMTKNQVSLWCLVKGFYPSDIAVEWESNGQPENNYKTTPPVLDSDGSFFLYSRLTVDKSRWQEGNVFSCSVMHEALHNHYTQKSLSLSLGKRSQVQLQESGGGLVQTGGSLRLSCAVHGRTFSNTGMGWFRQAPGNERQFVAIISPSGTSTYYADSVKGRFTISRDPAKNTVYLQMNSLKMDDTAVYYCAASYGSNWSTLRHQRRNEYDAWGQGTQVAVS
chain 2: GPPCPPCPAPEFLGGPSVFLFPPKPKDTLMISRTPEVTCVVVDVSQEDPEVQFNWYVDGVEVHNAKTKPREEQFNSTYRVVSVLTVLHQDWLNGKEYKCKVSNKGLPSSIEKTISKAKGQPREPQVCTLPPSQEEMTKNQVSLSCAVKGFYPSDIAVEWESNGQPENNYKTTPPVLDSDGSFFLVSRLTVDKSRWQEGNVFSCSVMHEALHNHYTQKSLSLSLGKRSEVQLLESGGGLVQPGGSLRLSCAASGFTFGNYDMAWVRQAPGKRPEWVSSIDTGGDITHYADSVKGRFTISRDNAKNTLYLQMNSLRPEDTAVYWCATDEEYALGPNEFDYYGQGTLVTVSS
B3: CIgG4B1A1(G4S)1 (Fc fusion)
chain 1: GPPCPPCPAPEFLGGPSVFLFPPKPKDTLMISRTPEVTCVVVDVSQEDPEVQFNWYVDGVEVHNAKTKPREEQFNSTYRVVSVLTVLHQDWLNGKEYKCKVSNKGLPSSIEKTISKAKGQPREPQVYTLPPCQEEMTKNQVSLWCLVKGFYPSDIAVEWESNGQPENNYKTTPPVLDSDGSFFLYSRLTVDKSRWQEGNVFSCSVMHEALHNHYTQKSLSLSLGKGGGGSQVQLQESGGGLVQTGGSLRLSCAVHGRTFSNTGMGWFRQAPGNERQFVAIISPSGTSTYYADSVKGRFTISRDPAKNTVYLQMNSLKMDDTAVYYCAASYGSNWSTLRHQRRNEYDAWGQGTQVAVS
chain 2: GPPCPPCPAPEFLGGPSVFLFPPKPKDTLMISRTPEVTCVVVDVSQEDPEVQFNWYVDGVEVHNAKTKPREEQFNSTYRVVSVLTVLHQDWLNGKEYKCKVSNKGLPSSIEKTISKAKGQPREPQVCTLPPSQEEMTKNQVSLSCAVKGFYPSDIAVEWESNGQPENNYKTTPPVLDSDGSFFLVSRLTVDKSRWQEGNVFSCSVMHEALHNHYTQKSLSLSLGKGGGGSEVQLLESGGGLVQPGGSLRLSCAASGFTFGNYDMAWVRQAPGKRPEWVSSIDTGGDITHYADSVKGRFTISRDNAKNTLYLQMNSLRPEDTAVYWCATDEEYALGPNEFDYYGQGTLVTVSS
B4: CIgG4B1A1(G4S)2 (Fc fusion)
chain 1: GPPCPPCPAPEFLGGPSVFLFPPKPKDTLMISRTPEVTCVVVDVSQEDPEVQFNWYVDGVEVHNAKTKPREEQFNSTYRVVSVLTVLHQDWLNGKEYKCKVSNKGLPSSIEKTISKAKGQPREPQVYTLPPCQEEMTKNQVSLWCLVKGFYPSDIAVEWESNGQPENNYKTTPPVLDSDGSFFLYSRLTVDKSRWQEGNVFSCSVMHEALHNHYTQKSLSLSLGKGGGGSGGGGSQVQLQESGGGLVQTGGSLRLSCAVHGRTFSNTGMGWFRQAPGNERQFVAIISPSGTSTYYADSVKGRFTISRDPAKNTVYLQMNSLKMDDTAVYYCAASYGSNWSTLRHQRRNEYDAWGQGTQVAVS
chain 2: GPPCPPCPAPEFLGGPSVFLFPPKPKDTLMISRTPEVTCVVVDVSQEDPEVQFNWYVDGVEVHNAKTKPREEQFNSTYRVVSVLTVLHQDWLNGKEYKCKVSNKGLPSSIEKTISKAKGQPREPQVCTLPPSQEEMTKNQVSLSCAVKGFYPSDIAVEWESNGQPENNYKTTPPVLDSDGSFFLVSRLTVDKSRWQEGNVFSCSVMHEALHNHYTQKSLSLSLGKGGGGSGGGGSEVQLLESGGGLVQPGGSLRLSCAASGFTFGNYDMAWVRQAPGKRPEWVSSIDTGGDITHYADSVKGRFTISRDNAKNTLYLQMNSLRPEDTAVYWCATDEEYALGPNEFDYYGQGTLVTVSS
B5: CIgG4B1A1(G4S3) (Fc fusion)
chain 1: GPPCPPCPAPEFLGGPSVFLFPPKPKDTLMISRTPEVTCVVVDVSQEDPEVQFNWYVDGVEVHNAKTKPREEQFNSTYRVVSVLTVLHQDWLNGKEYKCKVSNKGLPSSIEKTISKAKGQPREPQVYTLPPCQEEMTKNQVSLWCLVKGFYPSDIAVEWESNGQPENNYKTTPPVLDSDGSFFLYSRLTVDKSRWQEGNVFSCSVMHEALHNHYTQKSLSLSLGKGGGGSGGGGSGGGGSQVQLQESGGGLVQTGGSLRLSCAVHGRTFSNTGMGWFRQAPGNERQFVAIISPSGTSTYYADSVKGRFTISRDPAKNTVYLQMNSLKMDDTAVYYCAASYGSNWSTLRHQRRNEYDAWGQGTQVAVS
chain 2: GPPCPPCPAPEFLGGPSVFLFPPKPKDTLMISRTPEVTCVVVDVSQEDPEVQFNWYVDGVEVHNAKTKPREEQFNSTYRVVSVLTVLHQDWLNGKEYKCKVSNKGLPSSIEKTISKAKGQPREPQVCTLPPSQEEMTKNQVSLSCAVKGFYPSDIAVEWESNGQPENNYKTTPPVLDSDGSFFLVSRLTVDKSRWQEGNVFSCSVMHEALHNHYTQKSLSLSLGKGGGGSGGGGSGGGGSEVQLLESGGGLVQPGGSLRLSCAASGFTFGNYDMAWVRQAPGKRPEWVSSIDTGGDITHYADSVKGRFTISRDNAKNTLYLQMNSLRPEDTAVYWCATDEEYALGPNEFDYYGQGTLVTVSS
B6: NIgG4A1A1(RS) (Fc fusion)
chain 1: EVQLLESGGGLVQPGGSLRLSCAASGFTFGNYDMAWVRQAPGKRPEWVSSIDTGGDITHYADSVKGRFTISRDNAKNTLYLQMNSLRPEDTAVYWCATDEEYALGPNEFDYYGQGTLVTVSSRSGPPCPPCPAPEFLGGPSVFLFPPKPKDTLMISRTPEVTCVVVDVSQEDPEVQFNWYVDGVEVHNAKTKPREEQFNSTYRVVSVLTVLHQDWLNGKEYKCKVSNKGLPSSIEKTISKAKGQPREPQVYTLPPCQEEMTKNQVSLWCLVKGFYPSDIAVEWESNGQPENNYKTTPPVLDSDGSFFLYSRLTVDKSRWQEGNVFSCSVMHEALHNHYTQKSLSLSLGK
chain 2: B6 chain 1 with Y251C, C256S, W268S, L270A, Y309V

Biological target: T1, recombinant human IgE (human, UniProt P01854-1 1-428)
T1 construct: made in-house (ALK); preloaded on immobilised FcεRIα in the displacement ELISA
T1 sequence (P01854 other isoform, or with tags, fused parts or gaps): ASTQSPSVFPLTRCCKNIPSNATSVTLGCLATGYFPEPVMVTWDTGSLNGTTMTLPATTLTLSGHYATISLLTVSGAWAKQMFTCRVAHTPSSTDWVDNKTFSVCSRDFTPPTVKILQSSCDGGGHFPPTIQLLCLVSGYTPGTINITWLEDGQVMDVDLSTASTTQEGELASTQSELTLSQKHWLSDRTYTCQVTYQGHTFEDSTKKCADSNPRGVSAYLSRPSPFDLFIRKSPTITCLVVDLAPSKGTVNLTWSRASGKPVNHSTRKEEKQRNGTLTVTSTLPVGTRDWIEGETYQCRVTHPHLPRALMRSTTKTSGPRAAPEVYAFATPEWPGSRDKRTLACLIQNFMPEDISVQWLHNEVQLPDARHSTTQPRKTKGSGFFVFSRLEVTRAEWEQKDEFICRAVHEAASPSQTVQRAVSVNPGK
Experiment: IgE-FcεRIα displacement ELISA
Procedure: The displacement effect was tested using IgE-FcεRIα displacement ELISA assay. Maxisorp® microtiter plates (Thermo Scientific Nunc, Roskilde, Denmark) were coated with 100 μl streptavidin, 5 μg/ml (Thermo Scientific, Waltham, MA) for 18 h at 4° C. followed by wash with 300 μl washing buffer (PBS containing 0.05% Tween 20) using an AquaMax® 2000 plate washer (Molecular Devices, San Jose, CA). Remaining binding sites were blocked with 250 μl blocking buffer (PBS containing 2% BSA) for 2 h and washed with 300 μl washing buffer. Subsequently, the bound streptavidin was loaded with 100 μl (0.1 μg/ml) recombinant human FcεRIα (site specific biotinylated via avi-tag, made in-house, ALK, Hørsholm, Denmark) for 1 h and plates washed twice with 300 μl washing buffer. The bound receptor was then loaded with 100 μl recombinant human IgE (made in-house, ALK, Hørsholm, Denmark), 13 ng/ml (pre-titrated to reach an OD₄₅₀ signal in the range of 1.5-2.5 in the absence of displacement components) for 1h followed by three washes of 300 μl washing buffer.
displacement step: 100 μl sdAbs diluted in concentration series (pM-μM range) or blocking buffer only as a non-displacement negative control, were added to the ELISA wells and incubated for 1 h. Any IgE, displaced from the receptor by a sdAb was washed away by three washes of 300 μl washing buffer.
The ability of the various sdAbs to displace IgE from the receptor (FcεRIα) was evaluated by use of the ELISA based IgE-FcεRIα displacement assay. The percent displacement effect was calculated as the relative reduction in signal compared to the control with no sdAb added. The EC₅₀ values and the maximal effects were determined (table 15).

Binder	EC50	Max effect
B1	0.9 nM	> 95%
B2	9.8 nM	> 95%
B3	3.1 nM	> 95%
B4	4 nM	> 95%
B5	3.5 nM	> 95%
B6	490 nM	–
